What was measured:
[1] = tested on: T1, Biotin-AEEEIYGEFEAKKKKC (SEQ ID NO:4)
T1 sequence: AEEEIYGEFEAKKKKC

[2] = tested on: H2N-(CH2)4-CO-(SEQ ID NO:5)-NH-CH2-Fc
[3] = tested on: H2N-(CH2)4-CO-(SEQ ID NO:1)-NH-CH2-Fc
[4] = tested on: H2N-(CH2)4-CO-(SEQ ID NO:2)-NH-CH2-Fc
[5] = molecular target: T2, Biotin-AEEEIYGEFEAKKKKC (SEQ ID NO:4), fully phosphorylated by c-Src kinase
T2 chain: AEEEIYGEFEAKKKKC

[6] = molecular target: T3, H2N-(CH2)4-CO-(SEQ ID NO:1)-NH-CH2-Fc
T3 chain: AANL

Z-Ala-Ala-Asn-AMC = molecular target: T4, Z-Ala-Ala-Asn-AMC
T4 chain: AAN

“Active c-Src kinase protein (N-terminal 6His-tagged recombinant human c-Src, molecular weight 61.7 kDa)” was tested, and the “phosphorylation of the immobilized peptide” value [1] was “The peptide at the VACNF NEA was fully phosphorylated with 1-hour further incubation in c-Src kinase solution”.

“Purified recombinant human cathepsin B (R&D Systems), activated in 5 mM DTT and 25 mM MES buffer (pH 5.0)” was tested, and the “ACV peak current after adding activated cathepsin B (negative control, P1 Arg replaced by Asn)” value [2] was “The peak current ip,acv of these two tetrapeptides did not show the characteristic exponential decay while the activated cathepsin B was added”, the “ACV peak current after adding activated cathepsin B (negative control)” value [3] was “The peak current ip,acv of these two tetrapeptides did not show the characteristic exponential decay while the activated cathepsin B was added” and the “cleavage product by HPLC/MS after 2 h incubation in solution” value [4] was “The cleavage product, Phe-Gly-NH-CH2-Fc appeared at 37 min, was found confirming that the proteolysis took place at the arginine site”.

B1: PTP1B (residues 1-322, molecular weight 37.4 kDa) (protein)
chain: MEMEKEFEQIDKSGSWAAIYQDIRHEASDFPCRVAKLPKNKNRNRYRDVSPFDHSRIKLHQEDNDYINASLIKMEEAQRSYILTQGPLPNTCGHFWEMVWEQKSRGVVMLNRVMEKGSLKCAQYWPQKEEKEMIFEDTNLKLTLISEDIKSYYTVRQLELENLTTQETREILHFHYTTWPDFGVPESPASFLNFLFKVRESGSLSPEHGPVVVHCSAGIGRSGTFCLADTCLLLMDKRKDPSSVDIKKVLLEMRKFRMGLIQTADQLRFSYLAVIEGAKFIMGDSSVQDQWKELSHEDLEPPPEHIPPPPRPPKRILEPHNG
For B1, the “(kcat/Km)[E0], slope of -d(|Z|/|Z0|)/dt vs. |Z|/|Z0|, [E0]=2.4 nM” value [5] was “a slope of 0.0522 s^-1”, the “decrease in |Z| (REIS) over ~100 s after adding 2.4 nM PTP1B” value [5] was “A sharp decrease in |Z| by ~1,150Ω (~6.3%)” and the “decrease in |Z| (REIS) over ~100 s after adding 2.4 nM PTP1B, percent” value [5] was “A sharp decrease in |Z| by ~1,150Ω (~6.3%)”. For the same molecule, the “specificity constant kcat/Km (REIS, 2.4 nM PTP1B)” value [5] was 2.2e+07 M⁻¹ s⁻¹ and the “specificity constant kcat/Km (REIS, average of 7 data sets at three PTP1B concentrations)” value [5] was “an average value of 2.1×10^7 M^-1 s^-1 and a standard deviation of 1.0×10^6 M^-1 s^-1”.

B2: Recombinant human legumain/asparaginyl endopeptidase (R&D Systems), activated in 50 mM CH3COONa (pH 4.0) and 100 mM NaCl (protein)
chain: VPIDDPEDGGKHWVVIVAGSNGWYNYRHQADACHAYQIIHRNGIPDEQIVVMMYDDIAYSEDNPTPGIVINRPNGTDVYQGVPKDYTGEDVTPQNFLAVLRGDAEAVKGIGSGKVLKSGPQDHVFIYFTDHGSTGILVFPNEDLHVKDLNETIHYMYKHKMYRKMVFYIEACESGSMMNHLPDNINVYATTAANPRESSYACYYDEKRSTYLGDWYSVNWMEDSDVEDLTKETLHKQYHLVKSHTNTSHVMQYGNKTISTMKVMQFQGMKRKASSPVPLPPVTHLDLTPSPDVPLTIMKRKLMNTN
With B2 the “(kcat/Km)[E0], slope of reaction rate vs. surface adsorbed Fc, [E0]=773 nM” value [6] was “a slope of 6.32×10^-4 s^-1”, the “(kcat/Km)[E0], slope of vi vs. Γsurf, [E0]=80.1 nM” value [6] was “the slope of 6.30×10^-4 s^-1 at [E0]=80.1 nM” and the specificity constant kcat/KM (electrochemistry, EC, VACNF NEAs) [6] was 11300 M⁻¹ s⁻¹. For the same molecule, the “specificity constant kcat/Km (ACV on VACNF NEA), as given in the summary of Example 1” value [6] was 8200 M⁻¹ s⁻¹, the “specificity constant kcat/Km (ACV, single experiment at 80.1 nM)” value [6] was 7900 M⁻¹ s⁻¹ and the “time constant in the fit of surface adsorbed Fc vs. time” value [6] was “the time constant is 1101 s (~48 min)”. For the same molecule, the “time constant of the exponential decay of the ACV peak current after adding legumain” value [6] was “The time constant is 1076 s (~18 min.)” and the specificity constant kcat/KM (fluorescence assay, FL) (Z-Ala-Ala-Asn-AMC) was 4300 M⁻¹ s⁻¹.

— patent US20150011421
